# Measured values reported in paper PMC11043418, “Bacillus velezensis iturins inhibit the hemolytic activity of Staphylococcus aureus” (Scientific Reports, 2024).
# B1: alpha-hemolysin (natural protein)
# chain: ADSDINIKTGTTDIGSNTTVKTGDLVTYDKENGMHKKVFYSFIDDKNHNKKLLVIRTKGTIAGQYRVYSEEGANKSGLAWPSAFKVQLQLPDNEVAQISDYYPRNSIDTKEYMSTLTYGFNGNVTGDDTGKIGGLIGANVSIGHTLKYVQPDFKTILESPTDKKVGWKVIFNNMVNQNWGPYDRDSWNPVYGNQLFMKTRNGSMKAADNFLDPNKASSLLSSGFSPDFATVITMDRKASKQQTNIDVIYERVRDDYQLHWTSTNWKGTNTKDKWTDRSSERYKIDWEKEEMTN
# notes: also called α-hemolysin; Hla
# Biological target: the molecule itself
# Assay: SDS-PAGE of deoxycholate-induced oligomers
protein,measurement,value
B1,stoichiometry N,7
